B1: glmS ribozyme (parent)
chain: AUAAAAGCGCCAGAACUACAGAAAUGUAGUUGACGAGGAGGAGGUUUAUCGAAUUUUCGGCGGAUGCCUCCAAA

Data on 83 variants can be found in the supplement of paper PMC7125110.

± gives the standard error. Fewer inactive variants are shown than the library holds.

One series covers variants of B1. In words: self-cleavage kobs at 10000 uM GlcN6P; higher = faster cleavage; RNA array. The settings on record: with glucosamine-6-phosphate. The method, boiled down: (§1)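 Barcoded ribozyme variants were transcribed in situ on sequenced MiSeq chips by E. coli RNA polymerase. At 37 °C, a hybridised Cy3 probe tracked them while glucosamine-6-phosphate (40 μM to 10 mM) in HEPES/KCl/Mg(OAc)2 buffer flowed in and tiles were imaged over ~14 h. Per-tile medians of signals normalised to baseline and to non-cleaving reference variants were fit to one- or two-exponential decays, giving kobs. kcat and KM came from weighted Michaelis–Menten fits across concentrations.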
On to A33G G37U U45C G62U, for which the “self-cleavage kobs at 10000 uM GlcN6P” value is less than 1e-05 s⁻¹.

A15G U56G C68G: the “self-cleavage kobs at 10000 uM GlcN6P” value was 6.13e-05 ± 1.3e-05 s⁻¹.

Turning to G29C A36C, the “self-cleavage kobs at 10000 uM GlcN6P” value was less than 1e-05 s⁻¹.

Take G43U G59C C68A: the “self-cleavage kobs at 10000 uM GlcN6P” value is less than 1e-05 s⁻¹.

For C8A G41U U46G G63A, the “self-cleavage kobs at 10000 uM GlcN6P” value was less than 1e-05 s⁻¹.

As for G29A G32U A52G, the “self-cleavage kobs at 10000 uM GlcN6P” value was determined as 3.76e-05 ± 1.7e-05 s⁻¹.

For the variant G7C C68A C71A, the “self-cleavage kobs at 10000 uM GlcN6P” value was less than 1e-05 s⁻¹.

Consider A39U U65A, for which the “self-cleavage kobs at 10000 uM GlcN6P” value was 0.00166 ± 0.00039 s⁻¹.

Regarding C8A G9A C10U A33G A36G A39U U47C C58A, the “self-cleavage kobs at 10000 uM GlcN6P” value is less than 1e-05 s⁻¹.

Consider C8A G29U A52U U55A C71G, for which the “self-cleavage kobs at 10000 uM GlcN6P” value is less than 1e-05 s⁻¹.

With C10U C16G C61A C71U, the “self-cleavage kobs at 10000 uM GlcN6P” value was less than 1e-05 s⁻¹.

Regarding G41U G51U A53C, the “self-cleavage kobs at 10000 uM GlcN6P” value is less than 1e-05 s⁻¹.

In the case of G37C U46A G60U, the “self-cleavage kobs at 10000 uM GlcN6P” value is less than 1e-05 s⁻¹.

Regarding C8G A33U U56A, the “self-cleavage kobs at 10000 uM GlcN6P” value was less than 1e-05 s⁻¹.

For A12U U31C C67G, the “self-cleavage kobs at 10000 uM GlcN6P” value stood at 0.000267 ± 5.5e-05 s⁻¹.

Consider G13C G38U A48U C50A, for which the “self-cleavage kobs at 10000 uM GlcN6P” value was less than 1e-05 s⁻¹.

In the case of A12U G29C G41A, the “self-cleavage kobs at 10000 uM GlcN6P” value is 0.000129 ± 4.9e-05 s⁻¹.

For the variant A36C G38U U47C G51C, the “self-cleavage kobs at 10000 uM GlcN6P” value is less than 1e-05 s⁻¹.

Regarding G13A A15U A53G G60U, the “self-cleavage kobs at 10000 uM GlcN6P” value is less than 1e-05 s⁻¹.

As to C16A U30C C61G, the “self-cleavage kobs at 10000 uM GlcN6P” value is less than 1e-05 s⁻¹.

Regarding G9A A53C G62A C70G, the “self-cleavage kobs at 10000 uM GlcN6P” value is less than 1e-05 s⁻¹.

In the case of G35C G37A C68G, the “self-cleavage kobs at 10000 uM GlcN6P” value worked out at 4.58e-05 ± 2e-05 s⁻¹.

For A14U G37C A64C, the “self-cleavage kobs at 10000 uM GlcN6P” value was less than 1e-05 s⁻¹.

For C16G G38C G40C U45A A52G, the “self-cleavage kobs at 10000 uM GlcN6P” value is less than 1e-05 s⁻¹.

Regarding C10U G38U U46A C58U, the “self-cleavage kobs at 10000 uM GlcN6P” value was less than 1e-05 s⁻¹.

With C11A G41U G43U G44A G51C G63A, the “self-cleavage kobs at 10000 uM GlcN6P” value was less than 1e-05 s⁻¹.

With A39G U45A A64U, the “self-cleavage kobs at 10000 uM GlcN6P” value was found to be 0.000499 ± 0.00011 s⁻¹.

As to C10G C16G A53G C68U, the “self-cleavage kobs at 10000 uM GlcN6P” value was less than 1e-05 s⁻¹.

On to A15U A42U C67A, for which the “self-cleavage kobs at 10000 uM GlcN6P” value turned out to be 0.000127 ± 3.2e-05 s⁻¹.

Turning to C11U G38C C50A A53G G60C C68U, the “self-cleavage kobs at 10000 uM GlcN6P” value is less than 1e-05 s⁻¹.

Turning to A12C C16A C67U, the “self-cleavage kobs at 10000 uM GlcN6P” value was determined as 0.000164 ± 3.3e-05 s⁻¹.

For C16A U46C U55C, the “self-cleavage kobs at 10000 uM GlcN6P” value amounted to 7.09e-05 ± 1.6e-05 s⁻¹.

As to U45C U65G C67A, the “self-cleavage kobs at 10000 uM GlcN6P” value is 0.000786 ± 0.00016 s⁻¹.

In the case of C8G A14G A33U, the “self-cleavage kobs at 10000 uM GlcN6P” value was less than 1e-05 s⁻¹.

Consider C34U G63C C68G, for which the “self-cleavage kobs at 10000 uM GlcN6P” value is less than 1e-05 s⁻¹.

For the variant A33G A39U U49C C68G, the “self-cleavage kobs at 10000 uM GlcN6P” value was less than 1e-05 s⁻¹.

On to G7A A14G A39G C71U, for which the “self-cleavage kobs at 10000 uM GlcN6P” value was 5.55e-05 ± 1.7e-05 s⁻¹.

With G37A A42C, the “self-cleavage kobs at 10000 uM GlcN6P” value turned out to be 2.95e-05 ± 8.6e-06 s⁻¹.

As for U45G U55C G60A G63U, the “self-cleavage kobs at 10000 uM GlcN6P” value is less than 1e-05 s⁻¹.

For the variant A36C G43U U56C U57A C67G, the “self-cleavage kobs at 10000 uM GlcN6P” value was less than 1e-05 s⁻¹.

G37A G41U G59C G66U: the “self-cleavage kobs at 10000 uM GlcN6P” value is less than 1e-05 s⁻¹.

For the variant G41C G66C C68A, the “self-cleavage kobs at 10000 uM GlcN6P” value was less than 1e-05 s⁻¹.

Regarding A15C A39G A52G, the “self-cleavage kobs at 10000 uM GlcN6P” value is 0.000495 ± 8.8e-05 s⁻¹.

In the case of A6U A36C C58G, the “self-cleavage kobs at 10000 uM GlcN6P” value is less than 1e-05 s⁻¹.

As for U31A A36C, the “self-cleavage kobs at 10000 uM GlcN6P” value was less than 1e-05 s⁻¹.

Regarding A14C U45C A64G G66A, the “self-cleavage kobs at 10000 uM GlcN6P” value amounted to 0.000542 ± 9.2e-05 s⁻¹.

Consider A48C G62U C67U C71G, for which the “self-cleavage kobs at 10000 uM GlcN6P” value was less than 1e-05 s⁻¹.

On to C11U A12G A15U, for which the “self-cleavage kobs at 10000 uM GlcN6P” value turned out to be 0.000193 ± 4.2e-05 s⁻¹.

For the variant G41C U56A G59C, the “self-cleavage kobs at 10000 uM GlcN6P” value is less than 1e-05 s⁻¹.

Turning to U45G A53G A64U, the “self-cleavage kobs at 10000 uM GlcN6P” value amounted to 8.08e-05 ± 1.8e-05 s⁻¹.

Take G35C C67U: the “self-cleavage kobs at 10000 uM GlcN6P” value came out at 0.00429 s⁻¹.

Turning to G35C A42C C70U, the “self-cleavage kobs at 10000 uM GlcN6P” value is less than 1e-05 s⁻¹.

Take G13C G35U U47C A48C C61G C70U: the “self-cleavage kobs at 10000 uM GlcN6P” value is less than 1e-05 s⁻¹.

A14C A23C: the “self-cleavage kobs at 10000 uM GlcN6P” value was determined as 0.0057 ± 0.0012 s⁻¹.

For A6C G35C A52C G66U, the “self-cleavage kobs at 10000 uM GlcN6P” value was less than 1e-05 s⁻¹.

For the variant A15G G41A U54A, the “self-cleavage kobs at 10000 uM GlcN6P” value amounted to 9.17e-05 ± 2.8e-05 s⁻¹.

Consider G29U G38C G44A U47C, for which the “self-cleavage kobs at 10000 uM GlcN6P” value is less than 1e-05 s⁻¹.

As for A12U U30G A36U G41U A52U, the “self-cleavage kobs at 10000 uM GlcN6P” value was less than 1e-05 s⁻¹.

Regarding C8A A15U U47C U69A, the “self-cleavage kobs at 10000 uM GlcN6P” value is less than 1e-05 s⁻¹.

Take C8U G32A A48U A53U U55A: the “self-cleavage kobs at 10000 uM GlcN6P” value is less than 1e-05 s⁻¹.

A39G U46G: the “self-cleavage kobs at 10000 uM GlcN6P” value stood at 0.018 ± 0.0054 s⁻¹.

On to U56G C58U C67A, for which the “self-cleavage kobs at 10000 uM GlcN6P” value came out at 3.62e-05 ± 1.5e-05 s⁻¹.

A12G C50U A52G U69G C71A: the “self-cleavage kobs at 10000 uM GlcN6P” value is 3.23e-05 ± 1.6e-05 s⁻¹.

In the case of C11A A33C A42C C50G, the “self-cleavage kobs at 10000 uM GlcN6P” value was less than 1e-05 s⁻¹.

Turning to G9U G32C C34G U54G A64U C71A, the “self-cleavage kobs at 10000 uM GlcN6P” value is less than 1e-05 s⁻¹.

For A6G C8U U30A G40C A64C U65A, the “self-cleavage kobs at 10000 uM GlcN6P” value is less than 1e-05 s⁻¹.

C11U C50G C70G: the “self-cleavage kobs at 10000 uM GlcN6P” value came to 3.88e-05 ± 1.4e-05 s⁻¹.

Another series covers variants of B1. In words: self-cleavage kobs at 2500 uM GlcN6P; higher = faster cleavage; RNA array. The settings on record: with glucosamine-6-phosphate. The gist of the method:
as §1
As to A6U A52G C67G, the “self-cleavage kobs at 2500 uM GlcN6P” value worked out at 0.000425 ± 0.00018 s⁻¹.

As to G38A U56G, the “self-cleavage kobs at 2500 uM GlcN6P” value is less than 1e-05 s⁻¹.

Take C8U A39U C67G: the “self-cleavage kobs at 2500 uM GlcN6P” value is less than 1e-05 s⁻¹.

Consider A12U A33C G43A C67U, for which the “self-cleavage kobs at 2500 uM GlcN6P” value was less than 1e-05 s⁻¹.

As to G7U U49A U65G, the “self-cleavage kobs at 2500 uM GlcN6P” value is less than 1e-05 s⁻¹.

In the case of U30C G37C G38C C61U, the “self-cleavage kobs at 2500 uM GlcN6P” value was less than 1e-05 s⁻¹.

For the variant G13U G40A A42C U65G, the “self-cleavage kobs at 2500 uM GlcN6P” value is less than 1e-05 s⁻¹.

On to C16U G37C G51C G59C G60C, for which the “self-cleavage kobs at 2500 uM GlcN6P” value was less than 1e-05 s⁻¹.

For the variant G9C A39C C67A, the “self-cleavage kobs at 2500 uM GlcN6P” value is less than 1e-05 s⁻¹.

As to G32A G35A C61U C71U, the “self-cleavage kobs at 2500 uM GlcN6P” value is less than 1e-05 s⁻¹.

On to A39G U45A A64U, for which the “self-cleavage kobs at 2500 uM GlcN6P” value stood at 0.000381 ± 0.00012 s⁻¹.

In the case of A33C G60U G62C, the “self-cleavage kobs at 2500 uM GlcN6P” value is less than 1e-05 s⁻¹.

As for C11U A12G A15U, the “self-cleavage kobs at 2500 uM GlcN6P” value worked out at 0.000175 ± 4.8e-05 s⁻¹.

In the case of C10G C11A A33C A36U A52U A53C U56A G62U, the “self-cleavage kobs at 2500 uM GlcN6P” value is less than 1e-05 s⁻¹.

Turning to A52U C68U C70U, the “self-cleavage kobs at 2500 uM GlcN6P” value stood at 5.68e-05 ± 1.7e-05 s⁻¹.

For the variant G51C C67G C71U, the “self-cleavage kobs at 2500 uM GlcN6P” value is less than 1e-05 s⁻¹.

Turning to G9C A52U C58U, the “self-cleavage kobs at 2500 uM GlcN6P” value was less than 1e-05 s⁻¹.

For A48G C50G A52U, the “self-cleavage kobs at 2500 uM GlcN6P” value is less than 1e-05 s⁻¹.
